The target in this experiment is 鸡传染性法氏囊病病毒 B87株. Put plainly: cell-based or functional assay.

B1: IBDV-VP2 scFv30抗体 (scFv)
scFv: AVTLDESGGGLQTPGGALSLVCKGSGFDFSSHGMAWVRQAPGKGLEWVAGIGSSSSGTAYGSAVQGRATISRDNGQSTVRLQLNNLRAEDTGTYYCAKSVGDCAYGYSCAAGGIDAWGHGTEVIVSSASGGGGSGGGGSGGGGSVLTQPSSVSANPGETVKITCSGGGGSYGWFQQKSPGSAPVTVIYNNNNRPSDIPSRFSGSKSGSTATLTITGVQAEDEAVYYCGGSEDSSAGYVGIFGAGTTLTVLG
Take B1: the 阻断或抑制CPE的最小蛋白浓度 is 4.69 µg/mL.

Source of the values: patent publication CN108484759A.
